Test results from the supplement of paper PMC9876800.

System: peptide library, one residue held at a place counted from the S/T acceptor
Assay: relative phosphorylation of the sub-library (ratio to the mean residue at this position); human; higher = residue favoured
Outline: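 Human or orthologue kinase constructs, purified and recombinant, were incubated under kinase-specific conditions in 384-well plates with biotinylated degenerate peptide sub-libraries. Each sub-library fixed one residue at one position around a central Ser/Thr. Incubations lasted 90 min with peptides at 50 μM and 50 μM ATP spiked with γ-32P-ATP, after which spots on streptavidin membranes were phosphorimaged and quantified by densitometry. Relative sub-library phosphorylation is a ratio to the mean residue at that position.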

Chain of RPS6KA6, construct: Full length (Q9UK32 whole entry, looked up): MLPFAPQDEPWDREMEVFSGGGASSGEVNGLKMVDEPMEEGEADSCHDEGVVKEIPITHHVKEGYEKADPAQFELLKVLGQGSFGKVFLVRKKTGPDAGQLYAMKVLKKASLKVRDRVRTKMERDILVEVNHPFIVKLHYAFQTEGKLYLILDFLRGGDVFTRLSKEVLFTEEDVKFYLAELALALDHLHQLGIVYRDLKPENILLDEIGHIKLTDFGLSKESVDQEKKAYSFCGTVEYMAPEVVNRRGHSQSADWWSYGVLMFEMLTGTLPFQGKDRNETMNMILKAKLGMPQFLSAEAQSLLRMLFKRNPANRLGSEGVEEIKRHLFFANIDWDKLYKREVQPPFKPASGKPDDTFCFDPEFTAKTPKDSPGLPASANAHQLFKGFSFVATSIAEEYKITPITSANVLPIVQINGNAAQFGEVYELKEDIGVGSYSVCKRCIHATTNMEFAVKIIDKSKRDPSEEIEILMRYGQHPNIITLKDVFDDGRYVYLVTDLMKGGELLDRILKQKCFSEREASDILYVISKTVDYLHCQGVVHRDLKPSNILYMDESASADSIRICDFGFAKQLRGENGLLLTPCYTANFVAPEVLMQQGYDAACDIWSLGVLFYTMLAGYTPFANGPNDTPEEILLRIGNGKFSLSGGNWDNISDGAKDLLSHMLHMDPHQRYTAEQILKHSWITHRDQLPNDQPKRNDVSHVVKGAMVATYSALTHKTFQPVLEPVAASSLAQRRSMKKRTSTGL
Chain of MELK, construct: aa1-340 (Q14680 1-340, looked up): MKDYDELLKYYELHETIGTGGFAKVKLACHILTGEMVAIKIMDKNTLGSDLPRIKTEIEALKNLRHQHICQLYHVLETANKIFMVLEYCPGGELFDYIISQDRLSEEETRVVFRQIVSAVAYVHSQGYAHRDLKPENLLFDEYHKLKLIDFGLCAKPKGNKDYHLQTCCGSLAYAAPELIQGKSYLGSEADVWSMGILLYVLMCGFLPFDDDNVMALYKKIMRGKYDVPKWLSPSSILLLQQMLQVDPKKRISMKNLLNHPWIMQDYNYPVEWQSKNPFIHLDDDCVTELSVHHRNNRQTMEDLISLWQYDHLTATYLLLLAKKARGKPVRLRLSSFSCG
Chain of CSNK1G3, construct: Full length (Q9Y6M4 whole entry, looked up): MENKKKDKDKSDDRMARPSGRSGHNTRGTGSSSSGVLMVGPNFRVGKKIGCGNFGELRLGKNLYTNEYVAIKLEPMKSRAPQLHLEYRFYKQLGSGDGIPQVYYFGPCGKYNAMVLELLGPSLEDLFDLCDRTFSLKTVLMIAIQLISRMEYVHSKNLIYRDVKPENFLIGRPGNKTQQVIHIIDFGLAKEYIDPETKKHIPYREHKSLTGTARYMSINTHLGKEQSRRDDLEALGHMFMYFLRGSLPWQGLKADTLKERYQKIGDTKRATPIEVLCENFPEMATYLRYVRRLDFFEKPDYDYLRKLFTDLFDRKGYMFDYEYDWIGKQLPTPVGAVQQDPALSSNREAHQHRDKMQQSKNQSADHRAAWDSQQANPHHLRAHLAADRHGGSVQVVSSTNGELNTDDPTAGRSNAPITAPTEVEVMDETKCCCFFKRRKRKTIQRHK
Chain of SGK3, construct: aa119-end (Q96BR1 119-496, looked up): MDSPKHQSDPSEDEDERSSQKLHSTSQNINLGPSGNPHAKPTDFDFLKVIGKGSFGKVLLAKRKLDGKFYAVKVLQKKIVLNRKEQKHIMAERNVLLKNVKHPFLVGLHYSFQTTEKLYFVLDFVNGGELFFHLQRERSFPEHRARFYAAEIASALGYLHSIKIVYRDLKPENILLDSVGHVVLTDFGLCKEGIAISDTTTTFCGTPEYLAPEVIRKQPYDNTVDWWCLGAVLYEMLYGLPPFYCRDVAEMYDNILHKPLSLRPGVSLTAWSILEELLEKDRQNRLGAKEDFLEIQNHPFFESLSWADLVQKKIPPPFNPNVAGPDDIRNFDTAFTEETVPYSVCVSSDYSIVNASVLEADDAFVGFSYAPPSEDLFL

SGK3, construct: aa119-end (from UniProt Q96BR1)
relative phosphorylation
Conditions	at +1	at +2	at +3	at +4	at -1	at -2	at -3	at -4	at -5
A fixed	0.678	1.24	1.05	1.13	1.04	1.27	0.733	1.07	1.07
D fixed	0.294	0.423	0.901	0.91	0.498	0.2	0.186	0.53	0.497
E fixed	0.369	0.236	1.05	0.892	0.462	0.194	0.21	0.661	0.509
F fixed	2.98	0.836	1.09	0.843	0.672	0.609	0.352	0.749	0.836
G fixed	0.575	0.701	1.21	1.24	1.77	0.992	0.663	1.23	1.18
H fixed	0.707	1.32	1.05	1.13	1.1	1.2	1.74	1.05	1.05
I fixed	1.71	1.18	0.918	0.896	0.455	0.33	0.305	0.778	0.641
K fixed	0.807	0.987	0.995	1.08	1.71	3.22	2.08	1.73	1.94
L fixed	1.29	1.59	1.06	0.823	0.799	0.412	0.307	0.809	0.72
M fixed	1.88	1.14	1.04	0.92	1.02	0.394	0.349	0.875	0.708
N fixed	0.635	1.02	0.927	0.904	1.08	0.7	0.454	0.753	0.773
P fixed	0.361	0.56	0.835	1.39	1.06	0.558	0.688	1.09	0.991
Q fixed	0.812	0.625	0.996	0.983	0.804	0.676	0.613	0.988	0.752
R fixed	0.935	2.32	1.03	0.99	2.23	4.89	6.97	2.32	2.79
V fixed	1.5	1.05	1.04	0.894	0.614	0.417	0.404	0.953	0.955
W fixed	0.596	0.761	0.849	1.08	0.633	0.437	0.409	0.672	0.753
Y fixed	0.857	1.01	0.955	0.903	1.07	0.497	0.545	0.731	0.831
pThr fixed	0.681	0.529	0.661	0.81	0.359	0.512	0.367	0.743	0.567
pTyr fixed	0.778	0.681	0.97	0.875	0.801	0.44	0.552	0.76	0.791

MELK, construct: aa1-340 (from UniProt Q14680)
relative phosphorylation
Conditions	at +1	at +2	at +3	at +4	at -1	at -2	at -3	at -4	at -5
A fixed	1.02	0.961	0.744	0.748	0.777	1.24	0.757	1.12	0.927
D fixed	0.349	0.324	0.902	0.634	0.495	0.251	0.225	0.47	0.446
E fixed	0.447	0.274	0.436	0.558	0.469	0.305	0.256	0.658	0.392
F fixed	2.31	0.923	1.21	0.987	0.78	1.07	0.478	0.674	1.18
G fixed	0.949	0.79	0.855	1.02	0.711	0.78	0.707	1.24	0.884
H fixed	0.994	1.02	1.47	1.04	1.25	1.33	1.18	1.11	0.871
I fixed	0.511	1.64	0.77	1.26	0.783	0.667	0.347	0.669	1.13
K fixed	1.38	0.858	0.938	1.03	1.89	1.63	2.74	2.08	1.49
L fixed	0.752	1.79	1.02	1.84	1.07	0.681	0.454	0.761	1.76
M fixed	1.14	1.68	0.986	1.1	1.1	0.951	0.484	0.903	1.22
N fixed	0.837	0.873	1.48	0.988	1.19	1.09	0.742	1.02	0.711
P fixed	0.171	0.598	0.553	1.23	1.07	0.419	0.751	1.01	1.03
Q fixed	1.54	0.723	1.05	0.952	1.12	1.42	0.784	0.844	0.902
R fixed	1.72	1.28	1.12	1.03	1.71	1.79	5.37	1.81	1.67
V fixed	0.705	1.54	0.79	1.05	0.885	0.893	0.394	0.701	0.814
W fixed	0.959	0.808	1.69	0.848	0.601	1.15	0.676	1.1	0.766
Y fixed	1.22	0.935	1	0.673	1.09	1.33	0.653	0.831	0.806
pThr fixed	0.647	0.364	0.33	0.662	0.311	0.354	0.33	0.438	0.508
pTyr fixed	0.551	0.407	0.409	0.425	0.709	0.295	0.332	0.382	0.517

CSNK1G3, construct: Full length (from UniProt Q9Y6M4)
relative phosphorylation
Conditions	at +1	at +2	at +3	at +4	at -1	at -2	at -3	at -4	at -5
A fixed	0.678	0.743	0.752	0.708	0.916	1.39	0.508	0.923	1.01
D fixed	0.543	0.941	2.63	1.12	0.701	1.08	5.05	1.58	1.8
E fixed	0.611	0.607	1.46	0.928	0.788	1.27	3.58	1.78	1.62
F fixed	1.07	1.17	1.22	1.43	0.905	0.576	0.522	1.07	0.859
G fixed	0.459	0.67	0.931	1.07	0.635	0.903	0.475	0.818	0.86
H fixed	0.841	1.44	0.901	0.991	0.949	0.716	0.548	0.898	0.988
I fixed	1.81	1.02	0.58	0.696	1.39	0.963	0.467	0.714	0.82
K fixed	0.778	0.952	0.672	0.822	1	0.832	0.652	0.763	0.896
L fixed	2.24	1.1	0.772	0.808	1.23	1.05	0.484	0.796	0.91
M fixed	1.58	0.945	0.748	0.989	1.32	0.882	0.504	0.872	0.96
N fixed	0.721	1.06	1.05	0.947	0.781	1.57	0.645	0.801	1.04
P fixed	0.443	0.482	0.683	0.97	0.579	0.471	0.418	0.897	0.658
Q fixed	0.843	0.864	0.869	0.879	1.1	1.26	0.528	0.788	0.79
R fixed	1.03	1.25	0.877	1.02	1.28	1.54	1.02	0.845	0.992
V fixed	1.5	0.936	0.794	0.814	1.23	1.17	0.458	0.669	0.876
W fixed	1.01	1.23	1.11	1.48	1.22	0.715	0.581	1.69	1.05
Y fixed	0.855	1.59	0.941	1.33	0.974	0.613	0.56	1.1	0.877
pThr fixed	0.618	0.558	1.52	2.55	0.636	4.34	144	10.2	4.37
pTyr fixed	1.13	5.14	9.54	2.97	0.797	1.85	12.1	5.93	2.97

RPS6KA6, construct: Full length (from UniProt Q9UK32)
relative phosphorylation
Conditions	at +1	at +2	at +3	at +4	at -1	at -2	at -3	at -4	at -5
A fixed	0.637	0.911	0.754	0.964	0.769	0.556	0.382	0.988	0.874
D fixed	0.481	1.09	1.24	1.3	0.622	0.544	0.444	0.785	0.613
E fixed	1.44	0.799	1.65	1.36	0.635	0.549	0.417	0.96	0.608
F fixed	1.16	0.623	0.837	0.671	0.525	0.463	0.251	0.582	0.7
G fixed	0.574	0.967	1.23	1.37	1.1	0.812	0.527	1.13	0.932
H fixed	0.943	2.06	1.29	1.12	0.934	1.04	0.564	0.915	1
I fixed	1.49	0.54	0.708	0.609	0.262	0.364	0.205	0.479	0.433
K fixed	1.14	0.761	1.12	1.03	2.1	2.65	1.75	1.95	2.56
L fixed	1.1	0.498	0.815	0.648	0.657	1.01	0.245	0.563	0.539
M fixed	1.08	0.594	0.717	0.82	0.863	0.522	0.314	0.8	0.545
N fixed	0.986	1.13	1.1	1.04	1.49	0.675	0.541	0.822	0.687
P fixed	0.407	0.498	0.699	1.66	2.81	0.914	1.11	1.49	0.755
Q fixed	1.17	0.724	1.08	1.04	1	0.644	0.548	0.917	0.657
R fixed	0.949	1.31	1.01	0.906	1.53	5.3	8.88	2.69	4.15
V fixed	1.78	0.575	0.696	0.625	0.36	0.265	0.208	0.568	0.538
W fixed	0.716	1.58	0.975	1.03	0.468	0.27	0.286	0.681	0.705
Y fixed	0.948	2.34	1.07	0.81	0.872	0.424	0.325	0.676	0.697
pThr fixed	2.29	1.05	1.56	2.31	0.471	0.51	0.399	0.692	0.543
pTyr fixed	1.69	1.18	1.86	1.37	0.705	0.517	0.442	0.645	0.647
